One assay deals with T1, purified human TRAP1 (human, UniProt Q12931 60-704).
T1 sequence: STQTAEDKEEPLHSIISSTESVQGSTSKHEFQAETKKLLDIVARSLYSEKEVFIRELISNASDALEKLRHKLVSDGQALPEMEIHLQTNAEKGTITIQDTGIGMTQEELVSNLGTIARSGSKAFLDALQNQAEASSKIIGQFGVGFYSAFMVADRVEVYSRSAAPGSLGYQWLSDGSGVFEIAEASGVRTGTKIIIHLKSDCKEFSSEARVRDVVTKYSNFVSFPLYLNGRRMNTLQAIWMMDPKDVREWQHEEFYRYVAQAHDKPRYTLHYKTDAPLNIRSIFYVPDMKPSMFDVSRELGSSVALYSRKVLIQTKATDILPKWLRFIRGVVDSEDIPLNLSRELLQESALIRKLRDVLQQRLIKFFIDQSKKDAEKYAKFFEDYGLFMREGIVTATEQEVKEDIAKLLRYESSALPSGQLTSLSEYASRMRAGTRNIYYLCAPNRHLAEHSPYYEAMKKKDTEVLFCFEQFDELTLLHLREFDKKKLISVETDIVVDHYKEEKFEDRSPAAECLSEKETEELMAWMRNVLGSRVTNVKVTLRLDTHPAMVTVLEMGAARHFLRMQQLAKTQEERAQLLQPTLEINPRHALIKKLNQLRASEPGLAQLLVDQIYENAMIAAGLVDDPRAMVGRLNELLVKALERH
Put plainly: far-Western, overlay or dot blot.

In assay [1] the target is T2, recombinant mature human OSCP (human, UniProt P48047 24-213).
T2 sequence: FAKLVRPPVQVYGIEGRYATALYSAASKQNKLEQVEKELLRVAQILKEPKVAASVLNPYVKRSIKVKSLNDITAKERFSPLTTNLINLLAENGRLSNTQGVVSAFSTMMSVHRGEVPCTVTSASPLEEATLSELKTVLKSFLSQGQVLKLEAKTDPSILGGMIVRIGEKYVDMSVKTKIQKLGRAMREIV
As to the kind of experiment: SPR.

B1: F-ATP synthase subunit α (bovine heart) (natural protein)
chain: QKTGTAEVSSILEERILGADTSVDLEETGRVLSIGDGIARVHGLRNVQAEEMVEFSSGLKGMSLNLEPDNVGVVVFGNDKLIKEGDIVKRTGAIVDVPVGEELLGRVVDALGNAIDGKGPIGSKARRRVGLKAPGIIPRISVREPMQTGIKAVDSLVPIGRGQRELIIGDRQTGKTSIAIDTIINQKRFNDGTDEKKKLYCIYVAIGQKRSTVAQLVKRLTDADAMKYTIVVSATASDAAPLQYLAPYSGCSMGEYFRDNGKHALIIYDDLSKQAVAYRQMSLLLRRPPGREAYPGDVFYLHSRLLERAAKMNDAFGGGSLTALPVIETQAGDVSAYIPTNVISITDGQIFLETELFYKGIRPAINVGLSVSRVGSAAQTRAMKQVAGTMKLELAQYREVAAFAQFGSDLDAATQQLLSRGVRLTELLKQGQYSPMAIEEQVAVIYAGVRGYLDKLEPSKITKFENAFLSHVISQHQALLSKIRTDGKISEESDAKLKEIVTNFLAGFEA
Turning to B1, the binding result with purified human TRAP1 is given as “binds”.

B2: F-ATP synthase subunit g (bovine heart) (natural protein)
chain: MAEFVRNLAEKAPALVNAAVTYSKPRLATFWYYAKVELVPPTPAEIPTAIQSLKKIINSAKTGSFKQLTVKEALLNGLVATEVWMWFYVGEIIGKRGIIGYDV
As for B2, the binding result with purified human TRAP1 is given as “binds”.

B3: recombinant mature human CyPD (natural protein)
chain: not shown
For B3, the binding result in assay [1] is reported as “binds”.

B4: F-ATP synthase subunit OSCP (bovine heart) (natural protein)
chain: FAKLVRPPVQIYGIEGRYATALYSAASKQNKLEQVEKELLRVGQILKEPKMAASLLNPYVKRSVKVKSLSDMTAKEKFSPLTSNLINLLAENGRLTNTPAVISAFSTMMSVHRGEVPCTVTTASALDEATLTELKTVLKSFLSKGQVLKLEVKIDPSIMGGMIVRIGEKYVDMSAKTKIQKLSRAMREIL
On to B4, for which the binding result with purified human TRAP1 is listed as “binds”.

B5: F-ATP synthase subunit b (bovine heart) (natural protein)
chain: PVPPLPEHGGKVRFGLIPEEFFQFLYPKTGVTGPYVLGTGLILYLLSKEIYVITPETFSAISTIGFLVYIVKKYGASVGEFADKLNEQKIAQLEEVKQASIKQIQDAIDMEKSQQALVQKRHYLFDVQRNNIAMALEVTYRERLHRVYREVKNRLDYHISVQNMMRQKEQEHMINWVEKRVVQSISAQQEKETIAKCIADLKLLSKKAQAQPVM
For the molecule B5, the binding result in the assay with purified human TRAP1 is “binds”.

These data come from paper doi:10.1101/2021.12.06.471412 (bioRxiv, 2021).
